Results: patent publication US20250057881A1 (ROSWELL PARK CANCER INSTITUTE, published 2025)

Molecular target: T1, HLA-A*02:01 (human)
T1 construct: also called HLA-A2; A2
Assay: peptide loaded on Flex-T HLA-A*02:01 monomer by UV exchange; the resulting tetramer stained TCR-transduced T cells
Description: HLA-A2-binding epitope of CLDN6 between CLDN6₁₃₁₋₁₄₀ was predicted using […] database. […] (CLDN6₁₃₂₋₁₄₀) (SEQ ID NO:18) peptide was synthesized by EZBiolab with 82% purity. HLA-A2/peptide monomer was generated with Flex-T HLA-A*02:01 monomer UVX followed by tetramerization using PE-streptavidin according to the manufacturer's instruction (BioLegend). CD8-TCR-or mock-transduced cells were stained with the tetramer followed by anti-CD8 antibody.

binding result: binds
B1: CLDN6132-140 peptide (peptide)
peptide: TLIPVCWTA
notes: Synthetic peptide, 82% purity
